Results taken from patent publication US20220048967A1 (published 2022).
Numbered stars: 1 amine (or outer) side, 2 acyl side, 3 side chain; on linkers, the order of the positions; unused ones are H or OH. Square brackets hold non-standard residues; d marks the D form. Side chains are listed from the residue outwards. Ends that are not written are not given here. * marks the point of attachment. C20 diacid = O=C(O)CCCCCCCCCCCCCCCCCCC(=O)*; γGlu = O=C(O)[C@H](CCC(=O)[*:2])N[*:1]; αMeF = C[C@](N)(Cc1ccccc1)C(=O)O; AEEA = NCCOCCOCC(=O)O; Aib = CC(C)(N)C(=O)O

T1: human GIP receptor (human, UniProt P48546 22-466)
T1 sequence (looked up): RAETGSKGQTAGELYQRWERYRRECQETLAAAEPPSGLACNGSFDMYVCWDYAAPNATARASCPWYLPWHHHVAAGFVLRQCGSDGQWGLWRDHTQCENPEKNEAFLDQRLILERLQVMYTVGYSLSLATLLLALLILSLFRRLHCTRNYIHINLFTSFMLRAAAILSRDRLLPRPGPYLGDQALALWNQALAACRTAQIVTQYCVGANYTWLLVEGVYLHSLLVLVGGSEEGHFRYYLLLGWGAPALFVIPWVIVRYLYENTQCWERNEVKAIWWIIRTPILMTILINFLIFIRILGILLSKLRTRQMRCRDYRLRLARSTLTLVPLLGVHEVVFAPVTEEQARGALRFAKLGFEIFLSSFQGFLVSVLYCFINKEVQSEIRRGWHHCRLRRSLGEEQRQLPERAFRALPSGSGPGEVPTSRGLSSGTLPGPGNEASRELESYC

B1: Example 9 (peptide)
peptide: Y[Aib]EGTFTSDYSILLDSK([AEEA-AEEA-γGlu-C20 diacid])AQ[Aib]AFIEYLIEGGPSSGAPPPS-NH2
modifications: N-terminus assumed
SMILES: CC[C@H](C)[C@H](NC(=O)[C@H](CC(C)C)NC(=O)[C@H](Cc1ccc(O)cc1)NC(=O)[C@H](CCC(=O)O)NC(=O)[C@@H](NC(=O)[C@H](Cc1ccccc1)NC(=O)[C@H](C)NC(=O)C(C)(C)NC(=O)[C@H](CCC(N)=O)NC(=O)[C@H](C)NC(=O)[C@H](CCCCNC(=O)COCCOCCNC(=O)COCCOCCNC(=O)CC[C@H](NC(=O)CCCCCCCCCCCCCCCCCCC(=O)O)C(=O)O)NC(=O)[C@H](CO)NC(=O)[C@H](CC(=O)O)NC(=O)[C@H](CC(C)C)NC(=O)[C@H](CC(C)C)NC(=O)[C@@H](NC(=O)[C@H](CO)NC(=O)[C@H](Cc1ccc(O)cc1)NC(=O)[C@H](CC(=O)O)NC(=O)[C@H](CO)NC(=O)[C@@H](NC(=O)[C@H](Cc1ccccc1)NC(=O)[C@@H](NC(=O)CNC(=O)[C@H](CCC(=O)O)NC(=O)C(C)(C)NC(=O)[C@@H](N)Cc1ccc(O)cc1)[C@@H](C)O)[C@@H](C)O)[C@@H](C)CC)[C@@H](C)CC)C(=O)N[C@@H](CCC(=O)O)C(=O)NCC(=O)NCC(=O)N1CCC[C@H]1C(=O)N[C@@H](CO)C(=O)N[C@@H](CO)C(=O)NCC(=O)N[C@@H](C)C(=O)N1CCC[C@H]1C(=O)N1CCC[C@H]1C(=O)N1CCC[C@H]1C(=O)N[C@@H](CO)C(N)=O
B2: Example 117 (peptide)
peptide: Y[Aib]EGT[αMeF]TSDYSI[Aib]LDEK([AEEA-AEEA-γGlu-C20 diacid])AQ[Aib]AFIEYLIEGGPSSGAPPPS-NH2
modifications: N-terminus assumed
SMILES: CC[C@H](C)[C@H](NC(=O)[C@H](CC(C)C)NC(=O)[C@H](Cc1ccc(O)cc1)NC(=O)[C@H](CCC(=O)O)NC(=O)[C@@H](NC(=O)[C@H](Cc1ccccc1)NC(=O)[C@H](C)NC(=O)C(C)(C)NC(=O)[C@H](CCC(N)=O)NC(=O)[C@H](C)NC(=O)[C@H](CCCCNC(=O)COCCOCCNC(=O)COCCOCCNC(=O)CC[C@H](NC(=O)CCCCCCCCCCCCCCCCCCC(=O)O)C(=O)O)NC(=O)[C@H](CCC(=O)O)NC(=O)[C@H](CC(=O)O)NC(=O)[C@H](CC(C)C)NC(=O)C(C)(C)NC(=O)[C@@H](NC(=O)[C@H](CO)NC(=O)[C@H](Cc1ccc(O)cc1)NC(=O)[C@H](CC(=O)O)NC(=O)[C@H](CO)NC(=O)[C@@H](NC(=O)[C@](C)(Cc1ccccc1)NC(=O)[C@@H](NC(=O)CNC(=O)[C@H](CCC(=O)O)NC(=O)C(C)(C)NC(=O)[C@@H](N)Cc1ccc(O)cc1)[C@@H](C)O)[C@@H](C)O)[C@@H](C)CC)[C@@H](C)CC)C(=O)N[C@@H](CCC(=O)O)C(=O)NCC(=O)NCC(=O)N1CCC[C@H]1C(=O)N[C@@H](CO)C(=O)N[C@@H](CO)C(=O)NCC(=O)N[C@@H](C)C(=O)N1CCC[C@H]1C(=O)N1CCC[C@H]1C(=O)N1CCC[C@H]1C(=O)N[C@@H](CO)C(N)=O
B3: Example 113 (peptide)
peptide: YXEGTFTSDYSILLDKKAQXAFIEYLIEGGPSSGAPPPS
modifications: Aib2; K17((2-[2-(2-Amino-ethoxy)-ethoxy]-acetyl)2-(ϵK)-CO-(CH2)18-CO2H); Aib20; C-terminal NH2
B4: Example 8 (peptide)
peptide: B3 peptide
modifications: Aib2; K17((2-[2-(2-Amino-ethoxy)-ethoxy]-acetyl)2-(γ-Glu)-CO-(CH2)18-CO2H); Aib20; C-terminal NH2
B5: Example 11 (peptide)
peptide: Y[Aib]EGTFTSDYSILLDSIAQ[Aib]AFIEYLLK([AEEA-AEEA-γGlu-C20 diacid])[Aib]GPSSGAPPPS-NH2
modifications: N-terminus assumed
SMILES: CC[C@H](C)[C@H](NC(=O)[C@H](CO)NC(=O)[C@H](CC(=O)O)NC(=O)[C@H](CC(C)C)NC(=O)[C@H](CC(C)C)NC(=O)[C@@H](NC(=O)[C@H](CO)NC(=O)[C@H](Cc1ccc(O)cc1)NC(=O)[C@H](CC(=O)O)NC(=O)[C@H](CO)NC(=O)[C@@H](NC(=O)[C@H](Cc1ccccc1)NC(=O)[C@@H](NC(=O)CNC(=O)[C@H](CCC(=O)O)NC(=O)C(C)(C)NC(=O)[C@@H](N)Cc1ccc(O)cc1)[C@@H](C)O)[C@@H](C)O)[C@@H](C)CC)C(=O)N[C@@H](C)C(=O)N[C@@H](CCC(N)=O)C(=O)NC(C)(C)C(=O)N[C@@H](C)C(=O)N[C@@H](Cc1ccccc1)C(=O)N[C@H](C(=O)N[C@@H](CCC(=O)O)C(=O)N[C@@H](Cc1ccc(O)cc1)C(=O)N[C@@H](CC(C)C)C(=O)N[C@@H](CC(C)C)C(=O)N[C@@H](CCCCNC(=O)COCCOCCNC(=O)COCCOCCNC(=O)CC[C@H](NC(=O)CCCCCCCCCCCCCCCCCCC(=O)O)C(=O)O)C(=O)NC(C)(C)C(=O)NCC(=O)N1CCC[C@H]1C(=O)N[C@@H](CO)C(=O)N[C@@H](CO)C(=O)NCC(=O)N[C@@H](C)C(=O)N1CCC[C@H]1C(=O)N1CCC[C@H]1C(=O)N1CCC[C@H]1C(=O)N[C@@H](CO)C(N)=O)[C@@H](C)CC
B6: Example 7 (peptide)
peptide: Y[Aib]EGTFTSDYSILLDSK([AEEA-AEEA-γGlu-C20 diacid])AQ[Aib]AFIEYLLEGGPSSGAPPPS-NH2
modifications: N-terminus assumed
SMILES: CC[C@H](C)[C@H](NC(=O)[C@H](Cc1ccccc1)NC(=O)[C@H](C)NC(=O)C(C)(C)NC(=O)[C@H](CCC(N)=O)NC(=O)[C@H](C)NC(=O)[C@H](CCCCNC(=O)COCCOCCNC(=O)COCCOCCNC(=O)CC[C@H](NC(=O)CCCCCCCCCCCCCCCCCCC(=O)O)C(=O)O)NC(=O)[C@H](CO)NC(=O)[C@H](CC(=O)O)NC(=O)[C@H](CC(C)C)NC(=O)[C@H](CC(C)C)NC(=O)[C@@H](NC(=O)[C@H](CO)NC(=O)[C@H](Cc1ccc(O)cc1)NC(=O)[C@H](CC(=O)O)NC(=O)[C@H](CO)NC(=O)[C@@H](NC(=O)[C@H](Cc1ccccc1)NC(=O)[C@@H](NC(=O)CNC(=O)[C@H](CCC(=O)O)NC(=O)C(C)(C)NC(=O)[C@@H](N)Cc1ccc(O)cc1)[C@@H](C)O)[C@@H](C)O)[C@@H](C)CC)C(=O)N[C@@H](CCC(=O)O)C(=O)N[C@@H](Cc1ccc(O)cc1)C(=O)N[C@@H](CC(C)C)C(=O)N[C@@H](CC(C)C)C(=O)N[C@@H](CCC(=O)O)C(=O)NCC(=O)NCC(=O)N1CCC[C@H]1C(=O)N[C@@H](CO)C(=O)N[C@@H](CO)C(=O)NCC(=O)N[C@@H](C)C(=O)N1CCC[C@H]1C(=O)N1CCC[C@H]1C(=O)N1CCC[C@H]1C(=O)N[C@@H](CO)C(N)=O
B7: Example 10 (peptide)
peptide: Y[Aib]EGTFTSDYSILLDSIAQ[Aib]AFIK([AEEA-AEEA-γGlu-C20 diacid])YLLA[Aib]GPSSGAPPPS-NH2
modifications: N-terminus assumed
SMILES: CC[C@H](C)[C@H](NC(=O)[C@H](CO)NC(=O)[C@H](CC(=O)O)NC(=O)[C@H](CC(C)C)NC(=O)[C@H](CC(C)C)NC(=O)[C@@H](NC(=O)[C@H](CO)NC(=O)[C@H](Cc1ccc(O)cc1)NC(=O)[C@H](CC(=O)O)NC(=O)[C@H](CO)NC(=O)[C@@H](NC(=O)[C@H](Cc1ccccc1)NC(=O)[C@@H](NC(=O)CNC(=O)[C@H](CCC(=O)O)NC(=O)C(C)(C)NC(=O)[C@@H](N)Cc1ccc(O)cc1)[C@@H](C)O)[C@@H](C)O)[C@@H](C)CC)C(=O)N[C@@H](C)C(=O)N[C@@H](CCC(N)=O)C(=O)NC(C)(C)C(=O)N[C@@H](C)C(=O)N[C@@H](Cc1ccccc1)C(=O)N[C@H](C(=O)N[C@@H](CCCCNC(=O)COCCOCCNC(=O)COCCOCCNC(=O)CC[C@H](NC(=O)CCCCCCCCCCCCCCCCCCC(=O)O)C(=O)O)C(=O)N[C@@H](Cc1ccc(O)cc1)C(=O)N[C@@H](CC(C)C)C(=O)N[C@@H](CC(C)C)C(=O)N[C@@H](C)C(=O)NC(C)(C)C(=O)NCC(=O)N1CCC[C@H]1C(=O)N[C@@H](CO)C(=O)N[C@@H](CO)C(=O)NCC(=O)N[C@@H](C)C(=O)N1CCC[C@H]1C(=O)N1CCC[C@H]1C(=O)N1CCC[C@H]1C(=O)N[C@@H](CO)C(N)=O)[C@@H](C)CC

The binders below were run against human GLP-1 receptor (human, UniProt P43220 24-463) (assay: cell-based or functional assay).
With B1 the “hGLP1R cAMP EC50 ratio” value was 0.314 and the “hGLP1R cAMP Rel EC50” value was 0.194 nM. B2 was tested, and the “hGLP1R cAMP EC50 ratio” value was 0.998 and the “hGLP1R cAMP Rel EC50” value was 0.0615 nM. With B3 the “hGLP1R cAMP Rel EC50” value was 0.233 nM. In the case of B4, the “hGLP1R cAMP Rel EC50” value is reported as 0.148 nM. In the case of B5, the “hGLP1R cAMP EC50 ratio” value is reported as 0.0111 and the “hGLP1R cAMP Rel EC50” value is reported as 6.89 nM. In the case of B6, the “hGLP1R cAMP EC50 ratio” value is reported as 0.13 and the “hGLP1R cAMP Rel EC50” value is reported as 0.47 nM. B7 was tested, and the “hGLP1R cAMP EC50 ratio” value was 0.00912 and the “hGLP1R cAMP Rel EC50” value was 7.64 nM.

These binders were tested against T1, human GIP receptor (assay: cell-based or functional assay).
With B1 the “hGIPR cAMP EC50 ratio” value was 0.768 and the “hGIPR cAMP Rel EC50” value was 0.21 nM. In the case of B2, the “hGIPR cAMP EC50 ratio” value is reported as 2.44 and the “hGIPR cAMP Rel EC50” value is reported as 0.0648 nM. In the case of B3, the “hGIPR cAMP Rel EC50” value is reported as 0.166 nM. For B4, the “hGIPR cAMP Rel EC50” value was 0.0848 nM. B5 was tested, and the “hGIPR cAMP EC50 ratio” value was 0.399 and the “hGIPR cAMP Rel EC50” value was 0.486 nM. B6 was tested, and the “hGIPR cAMP EC50 ratio” value was 0.317 and the “hGIPR cAMP Rel EC50” value was 0.461 nM. In the case of B7, the “hGIPR cAMP EC50 ratio” value is reported as 0.151 and the “hGIPR cAMP Rel EC50” value is reported as 1.28 nM.
